{"source": "paper PMC2386288", "about": "“Kinetics and Ligand-Binding Preferences of Mycobacterium tuberculosis Thymidylate Synthases, ThyA and ThyX” (PLoS ONE, 2008)", "proteins": {"B1": {"name": "Histidine-tagged M. tuberculosis ThyA (thymidylate synthase) (enzyme)", "chain": "MSIVTPYEDLLRFVLETGTPKSDRTGTGTRSLFGQQMRYDLSAGFPLLTTKKVHFKSVAYELLWFLRGDSNIGWLHEHGVTIWDEWASDTGELGPIYGVQWRSWPAPSGEHIDQISAALDLLRTDPDSRRIIVSAWNVGEIERMALPPCHAFFQFYVADGRLSCQLYQRSADLFLGVPFNIASYALLTHMMAAQAGLSVGEFIWTGGDCHIYDNHVEQVRLQLSREPRPYPKLLLADRDSIFEYTYEDIVVKNYDPHPAIKAPVAV", "notes": "also called conventional thymidylate synthase"}}, "target": "the molecule itself", "assay": "SEC", "data": [{"protein": "B1", "values": [{"measurement": "stoichiometry N", "result": 2}]}]}
